For this test, the target named is T1, human TNFR2 expressed on the cell surface of 293T cells (human, UniProt P20333 23-461).
T1 construct: also called HuTNFR2; human TNFR2 on cell surface
T1 sequence: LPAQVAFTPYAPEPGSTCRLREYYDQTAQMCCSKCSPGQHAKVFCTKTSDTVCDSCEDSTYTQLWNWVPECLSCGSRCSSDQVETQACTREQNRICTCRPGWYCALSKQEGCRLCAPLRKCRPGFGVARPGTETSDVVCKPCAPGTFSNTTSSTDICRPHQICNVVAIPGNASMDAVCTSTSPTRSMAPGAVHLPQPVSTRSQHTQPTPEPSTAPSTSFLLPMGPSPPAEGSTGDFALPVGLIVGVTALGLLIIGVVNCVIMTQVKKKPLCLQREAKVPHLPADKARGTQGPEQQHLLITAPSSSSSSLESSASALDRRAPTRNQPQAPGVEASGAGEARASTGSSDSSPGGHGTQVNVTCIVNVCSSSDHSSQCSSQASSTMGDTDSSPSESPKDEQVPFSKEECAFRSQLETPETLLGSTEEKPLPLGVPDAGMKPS
Briefly: flow cytometry, blocking of Biotin-TNF-alpha binding to human TNFR2 on 293T cells; right panel; unit from the axis. (In flow cytometry, cells or beads pass a laser one at a time.)

B1: humanized antibody hu3-E (Hu3-H3/Hu3-L1) (antibody, human IgG1, kappa, V domains shown)
VH: QIQLVQSGAEVKKPGASVKVSCKASGYTFTTYGMSWVRQAPGQGLEWMGWIHTYSGVPTYADDFKGRFAFTLDTSTSTAYMELRSLRSDDTAVYYCARGLYGVDYWGQGTLVTVSS
VL: EIVMTQSPATLSLSPGERATLSCKASENVVTYVSWYQQKPGQAPRLLIYGASNRYTGIPARFSGSGSATDFTLTISSLQPEDFAVYYCGQSYTYPYTFGQGTKLEIKR
notes: Humanized form of 43B7A4, human IgG1/kappa
As usually defined, the IC50 is the midpoint of a concentration-inhibition curve. Lower therefore signals higher potency. In turn, B1 yielded an IC50 of 11 nM.

For the origin of these results see patent US11912777 (NANJING LEADS BIOLABS, dated 2024).
